Results on one variant are retold here after IntAct's records for PubMed 33368531.

B1: Centriole and centriolar satellite protein OFD1 (Homo sapiens), O75665 (parent)
chain: MMAQSNMFTVADVLSQDELRKKLYQTFKDRGILDTLKTQLRNQLIHELMHPVLSGELQPRSISVEGSSLLIGASNSLVADHLQRCGYEYSLSVFFPESGLAKEKVFTMQDLLQLIKINPTSSLYKSLVSGSDKENQKGFLMHFLKELAEYHQAKESCNMETQTSSTFNRDSLAEKLQLIDDQFADAYPQRIKFESLEIKLNEYKREIEEQLRAEMCQKLKFFKDTEIAKIKMEAKKKYEKELTMFQNDFEKACQAKSEALVLREKSTLERIHKHQEIETKEIYAQRQLLLKDMDLLRGREAELKQRVEAFELNQKLQEEKHKSITEALRRQEQNIKSFEETYDRKLKNELLKYQLELKDDYIIRTNRLIEDERKNKEKAVHLQEELIAINSKKEELNQSVNRVKELELELESVKAQSLAITKQNHMLNEKVKEMSDYSLLKEEKLELLAQNKLLKQQLEESRNENLRLLNRLAQPAPELAVFQKELRKAEKAIVVEHEEFESCRQALHKQLQDEIEHSAQLKAQILGYKASVKSLTTQVADLKLQLKQTQTALENEVYCNPKQSVIDRSVNGLINGNVVPCNGEISGDFLNNPFKQENVLARMVASRITNYPTAWVEGSSPDSDLEFVANTKARVKELQQEAERLEKAFRSYHRRVIKNSAKSPLAAKSPPSLHLLEAFKNITSSSPERHIFGEDRVVSEQPQVGTLEERNDVVEALTGSAASRLRGGTSSRRLSSTPLPKAKRSLESEMYLEGLGRSHIASPSPCPDRMPLPSPTESRHSLSIPPVSSPPEQKVGLYRRQTELQDKSEFSDVDKLAFKDNEEFESSFESAGNMPRQLEMGGLSPAGDMSHVDAAAAAVPLSYQHPSVDQKQIEEQKEEEKIREQQVKERRQREERRQSNLQEVLERERRELEKLYQERKMIEESLKIKIKKELEMENELEMSNQEIKDKSAHSENPLEKYMKIIQQEQDQESADKSSKKMVQEGSLVDTLQSSDKVESLTGFSHEELDDSW

The variants in the first assay derive from B1. The conditions noted are these: with gbrap_human GABARAP.
With Y961A;I964A, the “effect of a mutation on the interaction” value is “disrupting interaction”.

The variants in another assay derive from B1. The following applies: with mlp3b_human MAP1LC3B.
For the variant Y961A;I964A, the “effect of a mutation on the interaction” value is “disrupting interaction”.

Variants of B1 are the subject of the next assay. The conditions noted are these: with gbrap_human GABARAP. The source holds these as a separate data set.
On to Y961A;I964A, for which the “effect of a mutation on the interaction” value was “disrupting interaction”.
